Measured values published in the supplement of paper PMC10567573.

B1: ADAMTS4 (parent)
chain: HVDPEEPWSPCSARFITDFLDNGY

Variants of: B1
Assay: protein stability index of a GFP-peptide fusion (GPS, HEK-293T) (PSI 1-6); higher = more stable
Settings: c terminus: a fixed tail appended
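Also: lentivirally expressed fusions sorted by FACS into six bins by GFP to DsRed ratio, PSI derived from sequencing read proportions per bin multiplied by bin number.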

Protein stability index of substitutions, site by site:
D3: R 1.8; V 1.77; N 2.21; F 1.79; A 1.69; L 1.78; C 2.63; G 2.78; I 1.55; H 1.98; Q 2.49; Y 1.11; E 1.75; S 2.48; W 1.34; T 2.04; K 1.76
F15: K 2.07; L 1.96; E 2.65; R 2.25; D 2.47; N 2.04; I 1.71; V 1.91; W 1.64; G 2.71; Q 1.77; P 2.08; A 1.94
C11: R 1.7; F 2.1; H 2.06; S 2.19; M 1.6; W 1.86; L 1.69; P 2; Y 3.06; A 2.41
N22: E 2.19; L 1.71; V 1.94; K 1.57; I 2.52; P 2.09; G 2.07; S 1.47; C 2.35; Y 1.78; Q 2.09; F 1.85; M 1.92; H 1.62
P10: Q 2.1; C 1.5; V 1.74; Y 1.79; E 2.48; I 2.1; N 1.99; A 1.75; S 2.49; H 1.81; R 1.83; W 2.08; T 1.92; K 2.21; F 1.92
Y24: H 1.9; K 1.94; Q 2.1; V 1.73; P 1.92; G 2.36; M 2.07; D 1.75; R 1.96; I 2.05; S 1.81; L 1.84; C 1.39
F19: P 3; A 1.86; L 1.64; I 1.8; G 2.06; K 2.16; M 1.89; E 1.96; Q 2.21; Y 1.58; D 2.54; H 2.29; V 1.78; R 1.65
S9: C 2.08; K 1.97; Y 1.85; D 2.79; G 2.24; I 2.29; P 2.32; N 1.67; F 1.93; M 1.77; L 1.67; T 1.79; R 1.93; V 1.66
L20: M 1.82; R 2.3; V 1.92; G 2.31; T 2.13; N 2.39; A 1.96; I 1.78; P 2.15; H 1.92; S 1.82; E 2.24; K 1.93
E5: M 2.17; H 1.66; L 2.31; Y 3.13; V 1.92; R 2.77; N 1.96; F 2.72; I 2.32; A 2.37; T 2.96; D 1.9; C 2.19; Q 2.43; G 2.13; P 2.29; K 2.58
R14: D 2.45; L 2.13; V 1.56; C 1.66; F 2.27; W 1.58; H 1.84; Q 2; I 2.28; A 2.05; S 2.02; M 1.51; N 1.86
W8: P 3.49; I 3.34; F 2.29; R 3.36; N 2.95; C 3.39; D 3.66; Y 2.89; T 3.54; H 3.44; G 3.2; L 3.24; V 3.5
D18: K 2.02; A 2.2; C 2.73; M 2.9; R 1.13; G 1.59; T 1.65; H 1.89; P 2.17; V 2.03; N 1.58; F 1.6; S 1.61
G23: R 1.53; Q 1.65; F 2; C 2.17; M 1.69; V 2.27; W 1.82; A 1.74; D 2.24; I 2.05; E 1.96; K 2.06; Y 2.02; S 1.71
T17: E 1.57; R 2.03; D 1.81; N 1.62; M 2.38; G 1.71; F 1.41; W 1.86; S 1.88; A 1.87; Q 1.77; C 2.04; K 1.71; V 1.83; I 2.13
P4: H 2.21; T 1.8; M 1.77; D 2.11; V 1.62; K 1.87; N 1.95; Q 1.9; S 1.9; R 2.42; I 1.77; W 1.69; A 1.63; G 2.9; C 2.23
I16: E 2.33; T 1.74; R 2.84; Y 1.89; L 1.67; N 2.19; C 1.59; D 1.94; K 1.73; G 2.27; A 2.13; H 1.72; Q 2.07; S 1.98; W 1.55
A13: K 2.08; E 2.1; Y 1.67; Q 1.97; S 1.89; H 1.85; T 1.79; W 1.95; C 2.54; D 2.35; R 1.87; V 2.54; N 2.33; M 2.18
V2: E 3.19; P 2.23; K 2.62; Y 2.05; G 2.9; D 3; N 2.48; H 2.37; Q 2.16; C 2.09; M 2.75
P7: Q 1.72; G 1.92; M 2.23; D 2.7; V 2.56; L 3.65; S 2.35; R 2.14; N 1.74; H 1.57; T 1.9; A 1.48; E 2.67; K 1.89; C 2.11; Y 2.79
D21: Y 1.33; W 2.42; Q 2.21; S 1.73; F 2.12; I 2.69; N 1.84; P 1.96; M 1.77; K 1.88; A 1.35; V 2.2; H 1.43; G 1.76; C 1.95; R 1.87
S12: H 2.31; I 2.16; R 1.97; V 2.01; A 1.68; M 1.57; W 1.67; D 2.39; G 1.61
H1: M 1.95; C 2.17; Y 2.29; I 2.1; E 2.76; T 2.77; S 2.54; G 2.81; A 2.09; W 1.78; F 3.17; R 2.26; N 2.37
E6: R 2.44; A 1.85; T 1.77; M 2.59; L 2.05; G 1.92; F 2.19; W 2.57; P 2.72; H 1.74; K 1.64; S 2.43; D 1.76; V 1.79; Q 2.24; Y 2.07; N 1.94
